According to patent US20150315278A1 (Chugai, published 2015):
Where a chain is given by its changes, count along the chain named. Names and notes keep the numbering of the source.

B1: H15L4 antibody (antibody, V domains shown)
VH: QVQLVQSGAEVKKPGASVKVSCKASGYTFTDYEMHWIRQPPGQGLEWIGAIDPKTGDTAYSQKFKGRVTLTADKSTSTAYMELSSLTSEDTAVYYCTRFYSYTYWGQGTLVTVSS
VL: DIVMTQSPLSLPVTPGEPASISCRSSQSLVHSNRNTYLHWYQQKPGQAPRLLIYKVSNRFSGVPDRFSGSGSGTDFTLKISRVEAEDVGVYYCSQNTHVPPTFGQGTKLEIK
notes: Point-mutation modified form of H0L0
B2: H0M85L0 antibody (antibody, human IgG1, V domains shown)
VH: B1 VH with I37V, P40A, I48M, I51L
VL: B1 VL with I2V, Q42L, A48S, R50Q
notes: its constant region is not specified
B3: pH7pL16 antibody (antibody, IgG1, V domains shown)
VH: B1 VH with K19T, Q43E, Q62E, K63S, K65Q, G66D
VL: B1 VL with R24Q, S25A, Q27E, Q42L, A48S, R50Q, L109V, K112E
notes: Variable regions only
B4: pH7M85pL16 antibody (antibody, human IgG1, V domains shown)
VH: B1 VH with K19T, Q43E, Q62E, K63S, K65Q, G66D
VL: B1 VL with R24Q, S25A, Q27E, Q42L, A48S, R50Q, L109V, K112E
notes: its constant region is not specified; also called pH7M85pL6 [sic]
B5: humanized H0L0 antibody (antibody, V domains shown)
VH: B1 VH with I37V, P40A, I48M, I51L
VL: B1 VL with I2V, Q42L, A48S, R50Q
notes: the light chain constant region is not specified; also called humanized GC33 antibody
B6: pH7pL14 antibody (antibody, V domains shown)
VH: B1 VH with K19T, Q43E, Q62E, K63S, K65Q, G66D
VL: B1 VL with R24Q, S25A, Q27E, Q42L, A48S, R50Q
B7: Hspd1.8Lspd1.6 (Hd1.8Ld1.6) antibody (antibody, V domains shown)
VH: B1 VH with K19T, Q43E, K63S, K65Q, G66D
VL: B1 VL with S25A, Q27E, K79T, R82S, V83L, E84Q
notes: Lowered-pI variant; Hspd1.8 = H15 + K19T, Q43E, K63S, K65Q, G66D; Lspd1.6 = L4 + Q27E, KISRVE(79-84) to TISSLQ, S25A
B8: Hspu2.2Lspu2.2 (Hu2.2Lu2.2) antibody (antibody, V domains shown)
VH: B1 VH with Q43K, D52N, Q107R
VL: B1 VL with E17Q, S25A, Q27R, Q105R
notes: Raised-pI variant; Hspu2.2 = H15 + Q43K, D52N, Q107R; Lspu2.2 = L4 + E17Q, Q27R, Q105R, S25A

How the values were obtained:
[1] = biological target: T1, soluble GPC3 core polypeptide (Homo sapiens (Human), UniProt P51654 25-563); assay: competitive ELISA against biotinylated H0L0 on immobilized soluble GPC3 core (FIG. 4)
T1 construct: Immobilized on the ELISA plate at 1 ug/mL; also called glypican 3 antigen; glypican 3
T1 sequence (P51654 other isoform, or with tags, fused parts or gaps limits assumed): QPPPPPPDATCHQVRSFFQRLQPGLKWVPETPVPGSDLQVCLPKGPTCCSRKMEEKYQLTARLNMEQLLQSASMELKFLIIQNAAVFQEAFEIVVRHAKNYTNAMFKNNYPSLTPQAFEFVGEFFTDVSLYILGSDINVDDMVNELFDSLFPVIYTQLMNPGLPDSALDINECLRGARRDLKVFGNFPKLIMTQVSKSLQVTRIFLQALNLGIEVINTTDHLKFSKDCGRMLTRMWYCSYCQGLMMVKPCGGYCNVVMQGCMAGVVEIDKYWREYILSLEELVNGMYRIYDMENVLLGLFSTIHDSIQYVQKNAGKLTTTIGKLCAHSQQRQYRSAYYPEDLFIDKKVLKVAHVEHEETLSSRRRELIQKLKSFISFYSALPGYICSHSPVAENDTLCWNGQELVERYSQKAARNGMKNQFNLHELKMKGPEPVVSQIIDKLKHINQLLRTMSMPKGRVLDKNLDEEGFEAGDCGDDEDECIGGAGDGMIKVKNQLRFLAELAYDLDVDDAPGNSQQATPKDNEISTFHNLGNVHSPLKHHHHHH
Method: (§1) The H0L0 antibody and its point mutation-modified antibodies purified in (1) was evaluated by competitive ELISA. 100 μL of the soluble GPC3 core polypeptide (SEQ ID NO: 13) at 1 μg/mL was added to each well of a 96-well plate. The soluble GPC3 core polypeptide was immobilized on the plate by allowing the plate to stand overnight at 4° C. The soluble GPC3 core polypeptide immobilized on the plate was washed 3 times with a washing buffer using Skan WASHER400 (Molecular Devices); and blocked with 200 μL blocking buffer at 4° C. for at least 30 min. The blocked plate on which soluble GPC3 core polypeptide was immobilized was then washed 3 times with washing buffer using the Skan WASHER400. Subsequently, each well of the plate received 200 μL of a mixture containing 100 μL of biotinylated H0L0 antibody (final concentration=0.3 μg/mL) and 100 μL of the H0L0 antibody or its point mutation-modified antibody (at various concentrations). The H0L0 antibody was biotinylated using Biotin Labeling Kit (Roche) according to the instructions provided with the kit. The plate was left stand for 1 hour at room temperature, then washed 5 times with washing buffer using the Skan WASHER400 (Molecular Devices). […] The absorbance at 405 nm of the reaction solution in each well was measured using Benchmark Plus (BIO-RAD), with the control absorbance at 655 nm.

[2] = biological target: T1, soluble GPC3 core polypeptide; assay: competitive ELISA against biotinylated H0L0 on immobilized soluble GPC3 core (FIG. 14)
Method: The H0L0 antibody and its point mutation-modified antibodies purified in (1) was evaluated by competitive ELISA. 100 μL of the soluble GPC3 core polypeptide (SEQ ID NO: 13) at 1 μg/mL was added to each well of a 96-well plate. The soluble GPC3 core polypeptide was immobilized on the plate by allowing the plate to stand overnight at 4° C. The soluble GPC3 core polypeptide immobilized on the plate was washed 3 times with a washing buffer using Skan WASHER400 (Molecular Devices); and blocked with 200 μL blocking buffer at 4° C. for at least 30 min. The blocked plate on which soluble GPC3 core polypeptide was immobilized was then washed 3 times with washing buffer using the Skan WASHER400. Subsequently, each well of the plate received 200 μL of a mixture containing 100 μL of biotinylated H0L0 antibody (final concentration=0.3 μg/mL) and 100 μL of the H0L0 antibody or its point mutation-modified antibody (at various concentrations). The H0L0 antibody was biotinylated using Biotin Labeling Kit (Roche) according to the instructions provided with the kit. The plate was left stand for 1 hour at room temperature, then washed 5 times with washing buffer using the Skan WASHER400 (Molecular Devices). 100 μL goat anti-streptavidin alkaline phosphatase (ZYMED), diluted 20,000× with substrate buffer, was added to each well, and the resulting plate was left stand for 1 hour at room temperature, and then washed 5 times with washing buffer using the Skan WASHER400. Phosphatase Substrate (Sigma) was prepared at 1 mg/mL in the substrate buffer, added at 100 μL per well for 1 hour. The absorbance at 405 nm of the reaction solution in each well was measured using Benchmark Plus (BIO-RAD), with the control absorbance at 655 nm.
The binding activity to the antigen of each constant region pI modified antibody was measured using the method described in Example 1 (FIG. 14).

[3] = biological target: T1, soluble GPC3 core polypeptide; assay: competitive ELISA against biotinylated H0L0 on immobilized soluble GPC3 core (FIG. 10)
Method: as §1, with “kit.” for “kit. The plate was left stand for 1 hour at room temperature, then washed 5 times with washing buffer using the Skan WASHER400 (Molecular Devices).”
The binding activity to the antigen glypican 3 of each point mutation pI modified antibody was measured using the method described in Example 1 (FIG. 10).

[4] = biological target: T1, soluble GPC3 core polypeptide; assay: competitive ELISA against biotinylated H0L0 on immobilized soluble GPC3 core (FIG. 6)
Method: as §1

[5] = biological target: T1, soluble GPC3 core polypeptide; assay: competitive ELISA against biotinylated H0L0 on immobilized soluble GPC3 core (FIG. 5)
Method: as §1

| Binder | binding result [2] | other results |
| --- | --- | --- |
| B1 | – | binding result [1]: binds |
| B2 | binds | – |
| B3 | binds | – |
| B4 | binds | – |
| B5 | binds | – |
| B6 | – | binding result [3]: binds |
| B7 | – | binding result [4]: binds |
| B8 | – | binding result [5]: binds |
